The test system of data set [1] is P00330. The experiment in a line: mass photometry. Conditions: other: mass photometry.
In data set [2] the target is Alcohol dehydrogenase from baker's yeast (baker's yeast) (UniProt P00330). The experiment in a line: cross-linking.
Data set [3] addresses subunits of the human 20S proteasome (28 subunits). Kind of data set: cross-linking.

A word on the stoichiometry N: it is a count of units in the complex or per binding partner.

For “Alcohol dehydrogenase from baker's yeast”, in data set [1], the “% monomers after 5 min in guanidine HCl (dMP)” value is listed as “∼34 % monomers”.

As for “Alcohol dehydrogenase from baker's yeast (from UniProt P00330 1-348) (enzyme)”, in data set [2], the % of total counts as dimers (25:1 DSBU:ADH) was found to be 25%, the % of total counts as monomers (25:1 DSBU:ADH) is 50%, the % of total counts as tetramers (25:1 DSBU:ADH) came to 10% and the % of total counts as tetramers (DSBU molar excess ≥ 100) amounted to 53%. In data set [2], this substance returned a % of total counts as trimers (25:1 DSBU:ADH) of 14% and a stoichiometry N of 4.

With “subunits of the human 20S proteasome (28 subunits)”, in data set [3], the % covalently stabilised 20S proteasome (25:1 DSBU:20S) stood at 16% and the % covalently stabilised 20S proteasome (400:1 DSBU:20S) came to 25%.
